# Experimental data as given in paper PMC3896444, “Structural Basis of Thermal Stability of the Tungsten Cofactor Synthesis Protein MoaB from Pyrococcus furiosus” (PLoS ONE, 2014).
# “And” between values parts separate entries of the source, which are not always exact repeats. Identical values can stand only once.
# B1: E. coli MoaB (natural protein, Escherichia coli, UniProt P0AEZ9 1-170, looked up)
# chain: MSQVSTEFIPTRIAILTVSNRRGEEDDTSGHYLRDSAQEAGHHVVDKAIVKENRYAIRAQVSAWIASDDVQVVLITGGTGLTEGDQAPEALLPLFDREVEGFGEVFRMLSFEEIGTSTLQSRAVAGVANKTLIFAMPGSTKACRTAWENIIAPQLDARTRPCNFHPHLKK
# notes: MoaB of Escherichia coli; also called EcoMoaB; source: E. coli, purified (Ni-NTA)
# B2: E. coli MogA (enzyme, Escherichia coli, UniProt P0AF03 1-195, looked up)
# chain: MNTLRIGLVSISDRASSGVYQDKGIPALEEWLTSALTTPFELETRLIPDEQAIIEQTLCELVDEMSCHLVLTTGGTGPARRDVTPDATLAVADREMPGFGEQMRQISLHFVPTAILSRQVGVIRKQALILNLPGQPKSIKETLEGVKDAEGNVVVHGIFASVPYCIQLLEGPYVETAPEVVAAFRPKSARRDVSE
# notes: MogA, MPT-adenylyl-transferase of Escherichia coli; also called EcoMogA; MogA (E. coli); source: E. coli, purified (Ni-NTA); not shown: His-tag, N-terminal, kept
# B3: Pyrococcus furiosus MPT-adenylyl-transferase MoaB, wild type (enzyme)
# chain: MGVEEHKKEAPKTFKFGVITVSDKGAKGEREDKSGPLIIEELSKLGEHVYYKIVPDDKIEVLIALFEAIKSGADVVVTTGGTGITRRDITIESIKPLFDKELSFGEVFRAKSYEEVGYATVLTRATAGIIRGQERIVVVFSLPGSVNAVKTGLEIIKSEVFHILKHARE
# notes: MoaB, MPT-adenylyl-transferase of Pyrococcus furiosus; residues from 1 on are in the construct (1-9/10/11 disordered in the crystal), Glu169 is named; predicted mass with tag 19,971.95 Da; also called PfuMoaB; PfuMoaB-WT; source: E. coli BL21(DE3), purified (Ni-NTA); not shown: His-tag, N-terminal, kept
# B4: PfuMoaB I59R/I63R/F66R variant (enzyme, Pyrococcus furiosus)
# chain: MGVEEHKKEAPKTFKFGVITVSDKGAKGEREDKSGPLIIEELSKLGEHVYYKIVPDDKREVLRALREAIKSGADVVVTTGGTGITRRDITIESIKPLFDKELSFGEVFRAKSYEEVGYATVLTRATAGIIRGQERIVVVFSLPGSVNAVKTGLEIIKSEVFHILKHARE
# notes: MoaB of Pyrococcus furiosus with three arginines in the α3-helix; Increased tendency to precipitation was observed
# B5: G-domain of A. thaliana Cnx1 (domain or fragment, Arabidopsis thaliana)
# chain: VPGPEYKVAILTVSDTVSAGAGPDRSGPRAVSVVDSSSEKLGGAKVVATAVVPDEVERIKDILQKWSDVDEMDLILTLGGTGFTPRDVTPEATKKVIERETPGLLFVMMQESLKITPFAMLSRSAAGIRGSTLIINMPGNPNAVAECMEALLPALKHALKQIKGDKR
# notes: G domain of the molybdenum cofactor biosynthesis protein Cnx1 of Arabidopsis thaliana; also called AthCnx1G; Cnx1G; source: E. coli, purified (Ni-NTA)
# Assays:
# [1] = biological target: PfuMoaB-H3 variant (α3-helix exchanged against the corresponding helix of E. coli MogA) (Pyrococcus furiosus) (UniProt Q8U3T3); assay: cross-linking; 0.5 mg/ml protein, 1.5 mM BS3, 20 mM sodium phosphate pH 8.0, 0.2 M NaCl, 30 min; SDS-PAGE
# [2] = biological target: PfuMoaB-H3 variant (α3-helix exchanged against the corresponding helix of E. coli MogA) (Pyrococcus furiosus) (UniProt Q8U3T3); assay: cross-linking; 0.5 mg/ml protein, 2 mM EDC, 0.1 M MES pH 6.0, 0.5 M NaCl, 3 h; SDS-PAGE; trimer bands analysed by LC-MS/MS
# [3] = biological target: PfuMoaB-H3 variant (α3-helix exchanged against the corresponding helix of E. coli MogA) (Pyrococcus furiosus) (UniProt Q8U3T3); assay: SEC; analytical Superdex 200 10/300, 0.1 M Tris pH 8.0, 0.2 M NaCl, 0.5 ml/min, 4°C; 5-10 nmol of Ni-NTA purified protein; masses by standard proteins
# [4] = biological target: the molecule itself; assay: as above
# [5] = biological target: the molecule itself; assay: cross-linking; 0.5 mg/ml protein, 2 mM EDC, 0.1 M MES pH 6.0, 0.5 M NaCl, 3 h; SDS-PAGE; trimer bands analysed by LC-MS/MS
# [6] = biological target: the molecule itself; assay: crystal structure; space group P3(1)21, three chains in the asymmetric unit, hexamer by the two-fold crystallographic axis; crystals from 0.1 MES pH 6.0, 40% PEG 400, 5% PEG 3000, 20°C; 2.5 Å
# [7] = biological target: the molecule itself; assay: SEC; preparative Superdex 200 16/60 pg, Ni-NTA purified protein; fractions analysed by SDS-PAGE
molecule,measurement,setting,value
PfuMoaB-H3 variant (α3-helix exchanged against the corresponding helix of E. coli MogA) (from UniProt Q8U3T3 1-169) (enzyme),stoichiometry N,[1],3 and 2
same,stoichiometry N,[2],2 and 3
same,stoichiometry N,[3],3 and 2
B1,stoichiometry N,[4],6
B2,stoichiometry N,[4],3
B3,stoichiometry N,[5],3 and 2
same,stoichiometry N,[6],6
B4,binding result,[7],binds
B5,stoichiometry N,[4],3
